Measured values taken from patent publication US20190031760A1 (Hoffmann-La Roche, published 2019).
Each block holds one binder with its values, some of them ahead of it.

Assays:
[1] = molecular target: T1, full-length human ASGPR H1 with a C-terminal SNAP tag, on transfected HEK293 cells (human, UniProt P07306 1-291, SNAP tag labeled with SNAP-Lumi4Tb (terbium)); test: FRET on HEK293 cells expressing terbium-labeled ASGPR H1-SNAP; IgG1 at 50-0.39 nM, anti-humanFc-d2 as acceptor
T1 construct: whole, on cells; Transiently expressed in HEK293 cells for the FRET assay; also called transmembrane ASGPR H1-SNAP tag fusion protein labeled with terbium
T1 sequence (looked up): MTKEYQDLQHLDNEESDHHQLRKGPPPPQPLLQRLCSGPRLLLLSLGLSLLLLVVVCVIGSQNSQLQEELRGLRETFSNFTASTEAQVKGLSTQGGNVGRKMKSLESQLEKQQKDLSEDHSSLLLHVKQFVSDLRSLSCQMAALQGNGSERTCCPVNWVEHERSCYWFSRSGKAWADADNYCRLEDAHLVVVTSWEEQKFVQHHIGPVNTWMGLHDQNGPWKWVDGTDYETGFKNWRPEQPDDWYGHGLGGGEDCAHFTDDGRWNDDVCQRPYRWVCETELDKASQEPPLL

[2] = molecular target: T2, avi-Fc-human ASGPR H1 CRD (human, UniProt P0DOX5 223-449 = IgG part, biotinylated at the N-terminal Avi tag); test: SPR (ProteOn XPR36), antigen captured by neutravidin, Fab as analyte;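 for result: antigen surface loaded to 200, 400 or 800 RU in PBST pH 7.4, sensorgrams referenced against a buffer-only in-line channel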
T2 construct: also called Fc-CRD; hu/cyASGPR H1 CRD

[3] = molecular target: T3, avi-Fc-human CLEC10A stalk CRD (human, biotinylated at the N-terminal Avi tag); test: as above
T3 construct: Homodimeric Fc fusion of the human CLEC10A ECD, closest homologue of ASGPR H1, used as specificity control; also called huCLEC10A stalk CRD

[4] = molecular target: T2, avi-Fc-human ASGPR H1 CRD; test: SPR (ProteOn XPR36), antigen captured by neutravidin, antibody construct as analyte
[5] = molecular target: T4, avi-Fc-human ASGPR H1 stalk CRD (human, biotinylated at the N-terminal Avi tag); test: SPR (ProteOn XPR36), antigen captured by neutravidin, Fab as analyte;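 note: antigen surface loaded to 200, 400 or 800 RU in PBST pH 7.4, sensorgrams referenced against a buffer-only in-line channel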
T4 construct: Homodimeric (bivalent) Fc fusion of the human ASGPR H1 ECD (stalk and CRD); also called huASGPR H1 stalk CRD; Fc-stalk-CRD

[6] = molecular target: T5, avi-Fc-cynomolgus ASGPR H1 stalk CRD (cynomolgus, biotinylated at the N-terminal Avi tag); test: as above
T5 construct: Homodimeric Fc fusion of the cynomolgus ASGPR H1 ECD; also called cyASGPR H1 stalk CRD

[7] = molecular target: T6, human ASGPR H1 on ASGPR-positive hepatic cells (HepG2, primary human hepatocytes, Huh-7) (human, UniProt P07306 1-291); test: FACS on HepG2 cells, purified Fab at 1.1, 3.3 and 10 µg/ml, 30 min at 4°C, FITC anti-human F(ab')2 secondary
T6 construct: whole, on cells; Endogenous receptor on cells; the antibodies were selected on H1; also called surface-exposed ASGPR
T6 sequence (looked up): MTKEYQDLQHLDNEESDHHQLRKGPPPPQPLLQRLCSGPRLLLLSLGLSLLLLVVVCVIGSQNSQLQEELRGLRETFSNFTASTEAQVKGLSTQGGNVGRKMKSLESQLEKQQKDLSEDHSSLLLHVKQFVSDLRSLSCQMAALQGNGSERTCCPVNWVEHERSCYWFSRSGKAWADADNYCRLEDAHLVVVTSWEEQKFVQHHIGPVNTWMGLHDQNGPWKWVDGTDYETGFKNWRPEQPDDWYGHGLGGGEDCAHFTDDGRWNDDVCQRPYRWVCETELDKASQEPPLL

[8] = molecular target: T2, avi-Fc-human ASGPR H1 CRD; test: SPR (ProteOn XPR36), antigen captured by neutravidin, Fab as analyte; remark: listed apart in the source;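 for result: antigen surface loaded to 200, 400 or 800 RU in PBST pH 7.4, sensorgrams referenced against a buffer-only in-line channel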
[9] = molecular target: T7, avi-Fc-human ASGPR H1 stalk (human, biotinylated at the N-terminal Avi tag); test: as above
T7 construct: Homodimeric Fc fusion (wild type Fc); also called huASGPR H1 stalk; Fc-stalk

[10] = molecular target: T8, avi-Fc-cynomolgus ASGPR H1 stalk (cynomolgus, biotinylated at the N-terminal Avi tag); test: as above
T8 construct: Homodimeric Fc fusion (wild type Fc); also called cyASGPR H1 stalk
T8 sequence (chain, as listed by the source limits assumed): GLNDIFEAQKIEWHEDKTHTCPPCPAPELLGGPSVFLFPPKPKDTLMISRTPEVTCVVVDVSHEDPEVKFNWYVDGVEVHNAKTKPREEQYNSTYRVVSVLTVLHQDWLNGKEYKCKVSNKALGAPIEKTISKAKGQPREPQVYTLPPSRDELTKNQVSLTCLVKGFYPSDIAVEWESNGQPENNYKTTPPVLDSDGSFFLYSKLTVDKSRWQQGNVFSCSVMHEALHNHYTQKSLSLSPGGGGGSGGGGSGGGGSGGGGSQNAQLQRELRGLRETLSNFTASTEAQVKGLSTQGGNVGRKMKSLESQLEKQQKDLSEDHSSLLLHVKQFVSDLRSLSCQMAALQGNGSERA

T7 sequence (chain, as listed by the source limits assumed): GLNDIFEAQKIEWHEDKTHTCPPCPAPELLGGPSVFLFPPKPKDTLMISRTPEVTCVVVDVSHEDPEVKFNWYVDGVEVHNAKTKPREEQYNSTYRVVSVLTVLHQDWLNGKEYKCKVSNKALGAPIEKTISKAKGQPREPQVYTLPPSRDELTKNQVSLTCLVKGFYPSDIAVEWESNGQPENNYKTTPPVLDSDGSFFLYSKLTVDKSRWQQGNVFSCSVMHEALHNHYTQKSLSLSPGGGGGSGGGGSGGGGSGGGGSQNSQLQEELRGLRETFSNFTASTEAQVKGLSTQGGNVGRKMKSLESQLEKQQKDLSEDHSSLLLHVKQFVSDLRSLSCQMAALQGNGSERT
T3 sequence (chain, as listed by the source limits assumed): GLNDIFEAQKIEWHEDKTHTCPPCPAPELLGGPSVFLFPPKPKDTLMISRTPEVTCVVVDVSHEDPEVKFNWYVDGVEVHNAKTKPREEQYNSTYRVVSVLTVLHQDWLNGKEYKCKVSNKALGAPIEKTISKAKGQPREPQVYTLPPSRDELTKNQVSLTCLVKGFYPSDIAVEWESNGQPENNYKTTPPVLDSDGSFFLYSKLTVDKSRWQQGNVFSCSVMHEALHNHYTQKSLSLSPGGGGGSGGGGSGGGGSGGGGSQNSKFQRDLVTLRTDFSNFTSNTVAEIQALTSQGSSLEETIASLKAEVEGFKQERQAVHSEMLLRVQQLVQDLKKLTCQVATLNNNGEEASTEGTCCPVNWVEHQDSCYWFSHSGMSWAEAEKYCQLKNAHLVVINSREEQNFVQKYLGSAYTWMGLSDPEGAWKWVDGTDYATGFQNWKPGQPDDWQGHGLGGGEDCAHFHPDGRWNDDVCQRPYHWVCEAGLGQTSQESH

Kd [1]: 22 nM
B1: R7E12 IgG (antibody, V domains shown)
VH: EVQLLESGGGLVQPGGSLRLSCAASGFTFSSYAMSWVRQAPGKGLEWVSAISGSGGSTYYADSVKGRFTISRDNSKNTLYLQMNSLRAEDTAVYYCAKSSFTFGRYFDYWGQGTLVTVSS
VL: SSELTQDPAVSVALGQTVRITCQGDSLRSYYASWYQQKPGQAPVLVIYGKNNRPSGIPDRFSGSSSGNTASLTITGAQAEDEADYYCNSRKSSSKNVVFGGGTKLTVL
notes: To be rechecked

Kd [2]: 28.6 nM | koff [2]: 0.00396 s⁻¹ | kon [2]: 139000 M⁻¹ s⁻¹ | binding result [3]: no binding | Kd [4]: 28.6 nM | koff [4]: 0.00396 s⁻¹ | kon [4]: 139000 M⁻¹ s⁻¹
B2: 52C4 Fab (Fab, V domains shown)
VH: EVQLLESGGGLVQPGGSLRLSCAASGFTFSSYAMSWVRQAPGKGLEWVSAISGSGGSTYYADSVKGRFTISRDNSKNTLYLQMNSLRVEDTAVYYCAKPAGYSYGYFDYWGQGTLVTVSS
VL: SSELTQDPAVSVALGQTVRITCQGDSLRSYYASWYQQKPGQAPVLVIYGKNNRPSGIPDRFSGSSSGNTASLTITGAQAEDEADYYCNSGASSGNQLVFGGGTKLTVL
notes: Human lambda Fab from E. coli

Kd [5]: 9.12 nM | koff [5]: 0.00268 s⁻¹ | kon [5]: 294000 M⁻¹ s⁻¹ | Kd [6]: 9.55 nM | koff [6]: 0.00236 s⁻¹ | kon [6]: 247000 M⁻¹ s⁻¹ | binding result [3]: no binding
B3: R7E12 Fab (Fab, V domains shown)
VH: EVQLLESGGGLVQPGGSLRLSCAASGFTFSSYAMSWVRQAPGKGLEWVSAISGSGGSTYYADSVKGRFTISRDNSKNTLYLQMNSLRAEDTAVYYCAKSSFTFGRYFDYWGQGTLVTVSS
VL: SSELTQDPAVSVALGQTVRITCQGDSLRSYYASWYQQKPGQAPVLVIYGKNNRPSGIPDRFSGSSSGNTASLTITGAQAEDEADYYCNSRKSSSKNVVFGGGTKLTVL
notes: To be rechecked

binding result [7]: binds | Kd [8]: 0.448 nM | koff [8]: 9.64e-05 s⁻¹ | kon [8]: 215000 M⁻¹ s⁻¹
B4: 51A12_E7 Fab (Fab, V domains shown)
VH: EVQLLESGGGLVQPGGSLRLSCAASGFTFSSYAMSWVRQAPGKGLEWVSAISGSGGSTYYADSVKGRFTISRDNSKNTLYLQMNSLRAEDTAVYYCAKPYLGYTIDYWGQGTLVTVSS
VL: SSELTQDPAVSVALGQTVRITCQGDSLRSYYASWYQQKPGQAPVLVIYGKNNRPSGIPDRFSGSSSGNTASLTITGAQAEDEADYYCNSRDYRYNRAVRPFGGGTKLTVL
notes: Fab

Kd [2]: 0.57 nM | koff [2]: 6.28e-05 s⁻¹ | kon [2]: 110000 M⁻¹ s⁻¹ | Kd [8]: 0.57 nM | koff [8]: 6.28e-05 s⁻¹ | kon [8]: 110000 M⁻¹ s⁻¹ | Kd [4]: 0.571 nM | koff [4]: 6.28e-05 s⁻¹ | kon [4]: 110000 M⁻¹ s⁻¹
B5: 51A12 Fab (Fab, V domains shown)
VH: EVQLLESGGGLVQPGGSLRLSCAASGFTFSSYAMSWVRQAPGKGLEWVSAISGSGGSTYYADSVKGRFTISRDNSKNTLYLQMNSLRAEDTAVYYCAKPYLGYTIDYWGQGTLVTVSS
VL: SSELTQDPAVSVALGQTVRITCQGDSLRSYYASWYQQKPGQAPVLVIYGKNNRPSGIPDRFSASSSGNTASLTITGAQAEDEADYYCNSRDICCNRSVRNFGGGTKLTVL
notes: Human lambda Fab from E. coli, purified by IMAC; also called clone 51A12; parental clone 51A12

binding result [7]: binds | Kd [8]: 0.221 nM | koff [8]: 8.85e-05 s⁻¹ | kon [8]: 400000 M⁻¹ s⁻¹
B6: 51A12_D1 Fab (Fab, V domains shown)
VH: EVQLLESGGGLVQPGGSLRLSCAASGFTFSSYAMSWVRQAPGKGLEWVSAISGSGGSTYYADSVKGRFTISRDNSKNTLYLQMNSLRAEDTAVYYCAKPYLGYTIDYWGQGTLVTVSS
VL: SSELTQDPAVSVALGQTVRITCQGDSLRSYYASWYQQKPGQAPVLVIYGKNNRPSGIPDRFSGSSSGNTASLTITGAQAEDEADYYCNSRTYSYNRAVRPFGGGTKLTVL
notes: Fab

binding result [7]: binds | Kd [8]: 1.43 nM | koff [8]: 0.000178 s⁻¹ | kon [8]: 131000 M⁻¹ s⁻¹
B7: 51A12 S116A Fab (Fab, V domains shown)
VH: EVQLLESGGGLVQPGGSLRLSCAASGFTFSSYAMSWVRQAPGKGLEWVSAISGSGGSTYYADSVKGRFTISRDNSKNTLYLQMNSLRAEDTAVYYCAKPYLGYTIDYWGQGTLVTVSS
VL: SSELTQDPAVSVALGQTVRITCQGDSLRSYYASWYQQKPGQAPVLVIYGKNNRPSGIPDRFSASSSGNTASLTITGAQAEDEADYYCNSRDICCNRAVRNFGGGTKLTVL
notes: Fab

Kd [1]: 200 nM | Kd [4]: 0.21 nM | koff [4]: 7.34e-05 s⁻¹ | kon [4]: 350000 M⁻¹ s⁻¹
B8: 51A12 IgG (antibody, V domains shown)
VH: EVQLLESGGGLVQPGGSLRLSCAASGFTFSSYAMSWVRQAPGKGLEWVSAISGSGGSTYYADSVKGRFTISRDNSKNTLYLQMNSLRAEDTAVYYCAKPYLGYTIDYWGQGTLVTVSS
VL: SSELTQDPAVSVALGQTVRITCQGDSLRSYYASWYQQKPGQAPVLVIYGKNNRPSGIPDRFSASSSGNTASLTITGAQAEDEADYYCNSRDICCNRSVRNFGGGTKLTVL
notes: also called 51A12 human IgG1 antibody; clone 51A12 IgG

binding result [7]: binds | Kd [8]: 0.51 nM | koff [8]: 8.3e-05 s⁻¹ | kon [8]: 163000 M⁻¹ s⁻¹
B9: 51A12_H3 Fab (Fab, V domains shown)
VH: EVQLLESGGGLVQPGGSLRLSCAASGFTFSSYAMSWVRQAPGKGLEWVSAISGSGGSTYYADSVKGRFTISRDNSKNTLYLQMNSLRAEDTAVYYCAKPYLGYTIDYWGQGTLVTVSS
VL: SSELTQDPAVSVALGQTVRITCQGDSLRSYYASWYQQKPGQAPVLVIYGKNNRPSGIPDRFSGSSSGNTASLTITGAQAEDEADYYCNSRDYKFNRVVRNFGGGTKLTVL
notes: Fab

binding result [7]: binds | Kd [8]: 0.235 nM | koff [8]: 4.67e-05 s⁻¹ | kon [8]: 199000 M⁻¹ s⁻¹
B10: 51A12_C7 Fab (Fab, V domains shown)
VH: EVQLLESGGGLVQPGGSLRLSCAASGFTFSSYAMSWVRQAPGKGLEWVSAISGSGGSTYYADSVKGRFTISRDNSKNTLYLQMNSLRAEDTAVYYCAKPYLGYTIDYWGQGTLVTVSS
VL: SSELTQDPAVSVALGQTVRITCQGDSLRSYYASWYQQKPGQAPVLVIYGKNNRPSGIPDRFSGSSSGNTASLTITGAQAEDEADYYCNSRDIRYNRVVRPFGGGTKLTVL
notes: Fab

binding result [7]: binds | Kd [8]: 0.241 nM | koff [8]: 4.19e-05 s⁻¹ | kon [8]: 174000 M⁻¹ s⁻¹
B11: 51A12_C1 Fab (Fab, V domains shown)
VH: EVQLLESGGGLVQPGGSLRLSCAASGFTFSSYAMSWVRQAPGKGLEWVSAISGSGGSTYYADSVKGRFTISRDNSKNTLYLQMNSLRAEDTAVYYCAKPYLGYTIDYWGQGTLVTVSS
VL: SSELTQDPAVSVALGQTVRITCQGDSLRSYYASWYQQKPGQAPVLVIYGKNNRPSGIPDRFSGSSSGNTASLTITGAQAEDEADYYCNSRSYAFNRVVRNFGGGTKLTVL
notes: Fab

binding result [7]: binds | Kd [8]: 0.325 nM | koff [8]: 2.79e-05 s⁻¹ | kon [8]: 86000 M⁻¹ s⁻¹
B12: 51A12_H6 Fab (Fab, V domains shown)
VH: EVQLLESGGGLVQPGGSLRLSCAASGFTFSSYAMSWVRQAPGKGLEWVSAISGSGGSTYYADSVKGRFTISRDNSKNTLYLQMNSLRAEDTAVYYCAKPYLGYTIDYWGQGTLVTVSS
VL: SSELTQDPAVSVALGQTVRITCQGDSLRSYYASWYQQKPGQAPVLVIYGKNNRPSGIPDRFSGSSSGNTASLTITGAQAEDEADYYCNSRDYKWNRVVRHFGGGTKLTVL
notes: Fab

binding result [7]: binds | Kd [8]: 0.0801 nM | koff [8]: 2.61e-05 s⁻¹ | kon [8]: 326000 M⁻¹ s⁻¹
B13: 51A12_A6 Fab (Fab, V domains shown)
VH: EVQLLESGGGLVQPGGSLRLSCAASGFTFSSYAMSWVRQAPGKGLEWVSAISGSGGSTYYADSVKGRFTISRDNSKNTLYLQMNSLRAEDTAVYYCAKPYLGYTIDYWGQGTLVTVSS
VL: SSELTQDPAVSVALGQTVRITCQGDSLRSYYASWYQQKPGQAPVLVIYGKNNRPSGIPDRFSGSSSGNTASLTITGAQAEDEADYYCNSRTYSYNRAVRNFGGGTKLTVL
notes: Fab; also called Variant 51A12_A6

Kd [5]: 3.6 nM | koff [5]: 0.00211 s⁻¹ | kon [5]: 586000 M⁻¹ s⁻¹ | Kd [6]: 4.34 nM | koff [6]: 0.00199 s⁻¹ | kon [6]: 460000 M⁻¹ s⁻¹ | binding result [3]: no binding
B14: R9E10 Fab (Fab, V domains shown)
VH: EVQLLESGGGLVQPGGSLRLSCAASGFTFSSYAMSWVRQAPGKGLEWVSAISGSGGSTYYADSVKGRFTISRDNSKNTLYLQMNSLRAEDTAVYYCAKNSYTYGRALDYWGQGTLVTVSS
VL: SSELTQDPAVSVALGQTVRITCQGDSLRSYYASWYQQKPGQAPVLVIYGKNNRPSGIPDRFSGSSSGNTASLTITGAQAEDEADYYCNSRNVRGKLVFGGGTKLTVL
notes: Human lambda Fab from E. coli

Kd [1]: 5.9 nM
B15: R5C2 IgG (antibody, V domains shown)
VH: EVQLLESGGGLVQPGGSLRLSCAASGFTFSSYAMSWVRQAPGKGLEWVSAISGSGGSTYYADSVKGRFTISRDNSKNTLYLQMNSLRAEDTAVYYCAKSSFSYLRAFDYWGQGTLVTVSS
VL: SSELTQDPAVSVALGQTVRITCQGDSLRSYYASWYQQKPGQAPVLVIYGRNNRPSGIPDRFSGSSSGNTASLTITGAQAEDEADYYCNSRDRRGYSVFGGGTKLTVL
notes: also called R5C2 human IgG1 antibody

Kd [1]: 6.2 nM
B16: R9E10 IgG (antibody, V domains shown)
VH: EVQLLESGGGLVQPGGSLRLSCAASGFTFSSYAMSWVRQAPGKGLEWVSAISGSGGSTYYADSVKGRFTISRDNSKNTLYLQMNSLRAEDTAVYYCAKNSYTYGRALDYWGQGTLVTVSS
VL: SSELTQDPAVSVALGQTVRITCQGDSLRSYYASWYQQKPGQAPVLVIYGKNNRPSGIPDRFSGSSSGNTASLTITGAQAEDEADYYCNSRNVRGKLVFGGGTKLTVL
notes: also called R9E10 human IgG1 antibody

Kd [5]: 2.65 nM | koff [5]: 0.00112 s⁻¹ | kon [5]: 423000 M⁻¹ s⁻¹ | Kd [6]: 3.41 nM | koff [6]: 0.00114 s⁻¹ | kon [6]: 334000 M⁻¹ s⁻¹ | binding result [3]: no binding
B17: R5C2 Fab (Fab, V domains shown)
VH: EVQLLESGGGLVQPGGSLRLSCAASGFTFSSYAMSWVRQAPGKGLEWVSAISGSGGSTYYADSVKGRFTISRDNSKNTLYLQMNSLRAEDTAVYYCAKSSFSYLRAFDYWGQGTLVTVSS
VL: SSELTQDPAVSVALGQTVRITCQGDSLRSYYASWYQQKPGQAPVLVIYGRNNRPSGIPDRFSGSSSGNTASLTITGAQAEDEADYYCNSRDRRGYSVFGGGTKLTVL
notes: Human lambda Fab from E. coli

Kd [5]: 18.2 nM | koff [5]: 0.00408 s⁻¹ | kon [5]: 224000 M⁻¹ s⁻¹ | Kd [6]: 21.6 nM | koff [6]: 0.00365 s⁻¹ | kon [6]: 169000 M⁻¹ s⁻¹ | binding result [3]: no binding | Kd [9]: 29.5 nM | koff [9]: 0.00445 s⁻¹ | kon [9]: 151000 M⁻¹ s⁻¹ | Kd [10]: 33.6 nM | koff [10]: 0.0048 s⁻¹ | kon [10]: 143000 M⁻¹ s⁻¹
B18: 4F3 Fab (Fab, V domains shown)
VH: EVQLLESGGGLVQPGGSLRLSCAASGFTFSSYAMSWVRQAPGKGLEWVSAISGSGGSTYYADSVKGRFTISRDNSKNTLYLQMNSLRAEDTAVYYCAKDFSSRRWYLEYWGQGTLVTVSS
VL: SSELTQDPAVSVALGQTVRITCQGDSLRSYYASWYQQKPGQAPVLVIYGKNNRPSGIPDRFSGSSSGNTASLTITGAQAEDEADYYCNSLERIGYLSYVFGGGTKLTVL
notes: Human lambda Fab from E. coli; also called clone 4F3

Kd [1]: 4.5 nM
B19: 4F3 IgG (antibody, V domains shown)
VH: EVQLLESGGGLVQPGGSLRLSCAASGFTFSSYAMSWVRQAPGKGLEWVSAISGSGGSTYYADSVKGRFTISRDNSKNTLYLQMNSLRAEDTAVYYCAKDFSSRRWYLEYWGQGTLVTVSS
VL: SSELTQDPAVSVALGQTVRITCQGDSLRSYYASWYQQKPGQAPVLVIYGKNNRPSGIPDRFSGSSSGNTASLTITGAQAEDEADYYCNSLERIGYLSYVFGGGTKLTVL
notes: also called 4F3 human IgG1 antibody; clone 4F3

Kd [8]: 1.25 nM | koff [8]: 0.00016 s⁻¹ | kon [8]: 127000 M⁻¹ s⁻¹
B20: 51A12 A82G S116A Fab (Fab, V domains shown)
VH: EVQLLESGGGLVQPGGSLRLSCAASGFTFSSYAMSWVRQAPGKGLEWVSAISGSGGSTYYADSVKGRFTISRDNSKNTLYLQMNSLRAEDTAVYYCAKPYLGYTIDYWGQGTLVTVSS
VL: SSELTQDPAVSVALGQTVRITCQGDSLRSYYASWYQQKPGQAPVLVIYGKNNRPSGIPDRFSGSSSGNTASLTITGAQAEDEADYYCNSRDICCNRAVRNFGGGTKLTVLG
notes: Light chain variant of 51A12 with the parental heavy chain; To be rechecked
